# Reference: paper PMC8518580
# Experiments:
# Conditions in all cases: EMSA: LightShift REMSA kit, 30 min, 25 °C, 5% native PAGE (buffer not given); MST: Monolith NT.115, RED-labelled NbeEF1A, labelling in PBS, temperature not …
# [1] = system: NbeEF1A (eEF1A) (Nicotiana benthamiana); assay: MST
# [2] = system: NbeEF1A (eEF1A) (Nicotiana benthamiana); assay: MST; remark: listed apart in the source
# [3] = system: NbeEF1A (eEF1A) (Nicotiana benthamiana); assay: EMSA
Substance,Kd [1] [nM],Kd [2] [nM],binding signal (% of WT 3'-UTR) [3]
CWMV RNA1 (+) 3'-UTR,7.32,–,–
CWMV RNA2 (+) 3'-UTR,12.5,6.51,–
RNA1 3'-UTR del6730-6987,67.7,–,–
RNA1 3'-UTR del6988-7147,964,–,–
RNA2 3'-UTR dSL-1 (del3419-3429),–,117,–
RNA2 3'-UTR dSL-2 (del3469-3471),–,91.7,–
RNA2 3'-UTR dSL-3 (del3500-3503),–,33.5,–
RNA2 3'-UTR dSL-4 (del3505-3509),–,113,–
RNA2 3'-UTR dSL-5 (del3532-3535),–,36,–
RNA2 3'-UTR dSL-6 (del3561-3565),–,998,6
RNA2 3'-UTR del3174-3406,68.5,–,–
RNA2 3'-UTR del3407-3569,997,–,–
